Measured values: the DeepSol protein solubility set

Assay: soluble on expression in E. coli; label from the status in PepcDB or PDB records

Q: With “MFLAQPRGFCAGVVRAIEIVERALEKYGPPVYVRHEIVHNKYVVESLKAKGAIFVEELSEVPPKAVTVFSAHGVARSIEEEAAARDLPVLNATCPLVTKVHNQGKRYTSKGRTLILIGHAGHPEVEGTMGQVPGPVLLVQNLDDVAALTLPPETPVAYITQTTLSVDDTKDIIVALSKKFHDIEGPDTRDICYATQNRQSAVRQMSKLVDLILVVGANNSSNSNRLREIGTEAGIPSYLIADGSELDPAWLDGKKAVGITAGASAPEVLVDDVIEALRRIVPVTVSVLPGREENIEFVLPAELATALEHHHHHH” as the sequence, how does the “soluble on expression in E. coli” value read?
A: not soluble

Q: With “MISRVGADLGLSATAHVPRTDEPQKAKDFTTDQEVRWCPGCGDYVILATIRSFLPELGLRRENLMFVSGIGCSSRFPYYLDTYGLHSIHGRAPAIATGLAVTRPDLSVWVVTGDGDALSIGGNHLIHALRRNVNMTILLFNNRIYGLTKGQYSPTSEVGKVTKSTPLGSVDHPFNTLSLALGAEATFAARAMDSDRKGLTEVLRQAAAHRGTSFVEIYQDCPIFNDGSFDVLRKDGSEQRLIPLTHGEPIVFGGAGEYCVVRSGFGLKVVATADVDRDDIVVHDAHTDDPDYAYALSRLSDQDLTHTVTGVFRSVTRDTYDDMVRLQNEIAQEKDPVDDGSLQRLLTGHDTWTVE” as the sequence, how does the “soluble on expression in E. coli” value read?
A: not soluble

Q: With “PTRQVLQGSRCRLEPLTLAHASDLFAAHQLAPDARSWTWLLREPESNLAEFSAWVEQVATLADPIHFAVVDQQRGKAVGSLALMRIDIAHGVVEVGHVHFSPLLSRTAMATEAHWLLMQYVFDTLGYRRYEWKCNSLNIPSARAARRLGFQYEGRFRQALVSKGHNRDTDWFSVIDGEWPELDNAMRQWLAADNFTA” as the sequence, how does the “soluble on expression in E. coli” value read?
A: not soluble

Q: For “MSKPLPLVTRQGDRIVIVNGLRTPFAKQATAYHGVPAVDLGKIVVSELLARSGISSELIDQLVFGQVVQMPEAPNIAREIVLGTGMSVHTDAYSVSRACATSFQAVANVAESIIAGSVDIAIAGGADSSSVLPIGVSKALARTLVDANKARSLSQKLKLFSRLRLRDLLPVAPAVAEYSTGLRMGDTAEQMAKTYGISREDQDALALRSHQLAAEAWQQGWLHDEVMTAYIPPYREAIIEDNNIRKDSTLAQYAKLRPAFDRQHGSVTAANSTPLTDGAAAVLMMSESKAKALGLPPLGYLRSFAFSAIDVWQDMLLGPSYATPLALDRAGITLADLTLIDMHEAFAAQTLANLKMFASDTFAREKLGRSQAIGEVDMSKFNVLGGSIAYGHPFAATGARMITQTLNELRRRGGGLGLTTACAAGGLGAAMILEVE”, which “soluble on expression in E. coli” value is on record?
A: not soluble

Q: For “MHVAIIGGGISGIAAAFYLAQQKVSIDIFESENQIGGRAGSDFLQERRVDFGGKNIGRNYLLFREFARAYGDPAFEYFGINTSQLINGRIVSISREGSAWLNLLKIIRLCGLRKGITRLYPHIQAILNDRSQGVLCSDYFRALSENFDHLTLDRYLNQRCIDRVIRPITIRMNGAEPEECYPGNFGSNLALALDSFEQLTLGMYNLLDTFIASHRQESSFRILTGHRVTSIAKDQDKFRINYLNGAVSGTGSYDRIISALPAYSLAELLQDELPEASRLLNKISYFPVSIAIVKYRDEVFPQNRRAMVFDRNSPLSNAGAYGLNDLDIVRYTFSGKASRAAISEHSTPEEVISLGEKTASPYFSIKDNPKEAFVFRYFPKGLCAYSPKHHLLLEEIDRLVNRLSGFGTTGDYRRGASIEACFRAAKECIEKVVGDGSLEHHHHHH”, which “soluble on expression in E. coli” value is on record?
A: soluble

Q: With “MSLSANFSENISRLGLSSRSKQEKLAHLMETELTHLQASFIEAPTGLGKTYGYLLPILASGKGLVVSTATKVLQKQLVNDVAPKLGKTFGLKMAKIVGTKNYISLRKFSELLLNNTDGKNFEIFKMKILIWLTETRTGELDEVSKVMTNDDYFEVIRHDGYVNTKQLHYEQDFWLKAQKEAEQAEIKVVNHAYLIERLADYPETFLENRVLVVDEAQQLFPIMENAGQKSLKITDELIKIDAETSENPQLTKRLQESLVFQLNKKELDLNKIKIDADELGLRNLSALLEADNQIVWRENGMLYASDQDFYNFERLIPKNTKLFMLGATLSLSKDKPSFPDLLGFTDYRFFKIEGNQATNQQLLTVTDAPNIKNLSLIDYADYTANSIGELSKLNLPMVVLFTSKMALTFVAEKLSAEGFEILAQDINGSPAQIKKKFDKGEGKILLGLGSFWEGVDFDKQNQVILVIPRLPFATPDDILTKKYAQKFENPFYDFNVPMATLKLRQAIGRVNRRKNQYSSIVVLDKRLAGKSYAKRMRKNLSETLPVKMLNLLDTISEIKNFLIEGHHHHHH” as the sequence, how does the “soluble on expression in E. coli” value read?
A: not soluble

Q: With “MQSLIGLMRPETGKKLENLNHFIQQFEKVLIAFSGGVDSSTLAAVCSNAGVEVLAVTVLSSVSPRREMEEAKRIAEELGVRHEFLKIDLMDEDFRRNDENRCYYCKRRVLSALVEEAKKRGIEVVLEGTNASDLSDHRPGYRAVRELDGVNSPWVEFGITKEEIREIARSMGYSFHDKPSMACLASRIPFGIEIDEEKLKMVDEAEEAVIELAGVKQVRVRNYDGVAVVEVAGDELRKLLNCAEKVRDKLKKIGFRAVLIDLEGYRSGKRLFKF” as the sequence, how does the “soluble on expression in E. coli” value read?
A: not soluble

Q: Which “soluble on expression in E. coli” value does the source give for “MRAEFVNPFLASLMNVLKTMASLELKPQKPRIKKDEIARGDVSGLIGMIGPTTRGSMSITFDESLALEIMQNMLGERPNGLNEEVTDMVGEITNMVTGGAKRILAESGFDFDMATPVVVSGRGHTIRHKCEGAIILMPFSSPWGNAFIEICFE” here?
A: not soluble

Q: For “METPVPKPRTKFEPSSPEPTLPPRPPVKPPRAVANSTAVQNFGNVLGELRLNLNETISSQDPPGIGFIEVSPGTSMSPPQRHAPPPPRPPPPAGWKQHPVIPERIQLNRPLPSLPIDVSLTPVYSEPSTSSPSSTNCYENHNSSVVENPLYLSLDTYRSISGITPSPSNAPTTSPDCDELREWLTEEEENESCSSSRPENLNASIPAPIPGDDSRPSIDSEENPYTPCPRRSDYDNSEFIGSTIDPFDDSFYTDNTTNNSHQNLYVSPQFVKEKTKSECDRYENVVEICSSPDPPPTHLYVNVPPIYPSADNIISSESDDVFRDEGKMKIDGSSITFVGFVSLTSSKKEKRLHCRLRNMQLSFHDDEDSTEPSNGTFDIKGIYLFRHMASDTPYILIHVGEKRNVISFIPEDPPNLWMFFLSEAWLSLNYGLTSVLRDADELTICGITWIKHGTTGEWKICSAGINGLTLHYMLVDAKDRIYNRNSERSDAGTSFMSTVGSIIGDELVEVDLRKVMTMRERIDKSEFCPNARHKRGPFSITLHGVTLYIDSRDDSTTSHWYEAIEALLKRPATRLENLRLTGDNIPVIVDKCIRFVSAYGMKCEGIYRRNGKVTEAKTILTKLTEDPVGYYPVHENDETVYAVADVLRQFFRKLDAPLFPSSSQADLFDLATESQSDELCARYAQLINTFELVHRSTLKKLIGHLKNVSEHAQENRASVENLAKVFAASLFLTDAMDEKVFSESYNHQINVLIHLTTGYDVVFQISIEEELSRQMVNDAEKKSFNAKKPSPDFIVAIHVWEKENRPFNVKMSLASEEVCREAIAKRGFDGPPDSPYAIFECLAGGNLIRRLPNAQKMSKCVLQWIDWNCKDAYLLFDHDKYQFNGTDMSCFTGKIKIAEPGSRTFKSYEVKIENGTSIVAFRNEKLWKAWPMDDSIWYVGTEPTRKSPNLFNATMICSTKTGYSSSRFPGFCFSFKEETDRNRWLTALSHFTKSIDSEPLVYI”, which “soluble on expression in E. coli” value is on record?
A: not soluble

Q: With “MASLFTQEIHLSKRHEEILSQRLMLLQKMKNKFGDENTERASLLQATETASRRNLRLLKDIDAAEEAFQTKLIPHPQPSMLSLETRYWASVEEHIPKWELFLLGRAPYPIGAENQNEVPFVQTEATL” as the sequence, how does the “soluble on expression in E. coli” value read?
A: soluble

Q: Which “soluble on expression in E. coli” value does the source give for “MAPKRALPTEQVVAQLLGDDMGPSGPRKRERLNHLSQEEKMDRRKLKNRVAAQNARDKKKERSAKIEDVMRDLVEENRRLRAENERLRRQNKNLMNQQNESVMYMEENNENLMNSNDACIYQNVVYEEEVVGEVAPVVVVGGEDRRAFESAAFINEPQQWEQARSTSINNNISNQLRRMDSKKNNTISVDMYLTIISILCNHMDRNKKMDTSNKSSNISRAQAESSIDSLLATLRKEQTVMQRLVQADPCTHLQKRVKHFRRIP” here?
A: soluble

Q: With “MGHHHHHHSHLFQGDDAKEKIAVVDETNELYPVFSKQLKAVDTDGDLDVKLSKQSEDEVTKQVKDESLDGMLIIKRDEKGTISGTYKALTISDESTYQTLQQALTQTKTAVGTAELGVSQETISSLYAPVTVGQKALKEGAKSEEELGQT” as the sequence, how does the “soluble on expression in E. coli” value read?
A: not soluble

Q: For “MTYTGSIRCEGDTWDLASSVGATATMVAAARAMATRAANPLINDQFAEPLVRAVGVDVLTRLASGELTASDIDDPERPNASMVRMAEHHAVRTKFFDEFFMDATRAGIRQVVILASGLDSRAYRLAWPAQTVVYEIDQPQVMEFKTRTLAELGATPTADRRVVTADLRADWPTALGAAGFDPTQPTAWSAEGLLRYLPPEAQDRLLDNVTALSVPDSRFATESIRNFKPHHEERMRERMTILANRWRAYGFDLDMNELVYFGDRNEPASYLSDNGWLLTEIKSQDLLTANGFQPFEDEEVPLPDFFYVSARLQRKHRQYPAHRKPAPSWRHTACPVNELSKSAAYTMTRSDAHQASTTAPPPPGLTG”, which “soluble on expression in E. coli” value is on record?
A: soluble

Q: With “MGSDKIHHHHHHAAEGRKDFNLYTLVPGSATVVLETDDLAGMIQGINELSCSKDRHFLYVSKLFSYLKLHLYTLLEDTPHGLSKQMNKVLLSFHEPDNDRNQVLYCSLGNGDYELVEKFIRKYCSSSFPSKLFDYKGEEIRIYPMPDDSFLACYFTSDFLVVSYQKKLIEQVIDARLSKKSLLTDASFAKVHEDKRARVAATIYARMQPLSMGKATDGIRSCTQLGGWTEFDMKMNGDAIYFSGVSHDTDTCLTFMNVLRQQQPVEDFPGDILPASTFFFNKRSVTDMQAMLDFTARQEYTTSTYSDYIRDRDGELLAYLKENAGGEIVTCLFHSTDTLSNPCAVMSIPLRDGQQAERVLQGMLRTAPKEVDGPPKPRTTFCKTPLRAYTLYVLPRNTLFTQLTGITESALYIYACFYEGRLVLAPDVESLTAYLRHLDKKEILDDTPGYEEAVVNLSPSYNFMMVADLGETFSQPENYVRLIPAFFFRNQEFFRHFILSAQFTCTDGIVYPNVVLIYKGESDDVS” as the sequence, how does the “soluble on expression in E. coli” value read?
A: not soluble

Q: For “TLTVNGPPIISSTQTQHALHGEKGQIKCFIRSTPPPDRIAWSWKENVLESGTSGRYTVETISTEEGVISTLTISNIVRADFQTIYNCTAWNSFGSDTEIIRLKEQGSEM”, which “soluble on expression in E. coli” value is on record?
A: soluble

Q: Which “soluble on expression in E. coli” value does the source give for “MGSDKIHHHHHHMFYIMPAWENEVSELNRDLLKNLTNVFVGGKKSVKLAVLNFLPNLRYLLHVNGLTNYEYWNIWDAILGIERVDGMPLGPEALDLPQGVRLINAMTSMDAYEGSKLYARIIRSSEGYLSEVQFMNPQNRHTDVYDDRGFKVCTNYYENEEVVRQEWFNECNQLIVRYEPKAKVAVQILGNYSNFEKRQYKTLNELLMEFVNSFFEEHFDPTQDRLIASTNLKIRPLMVEIQNRLPVTYLLDHLGPMDTTTVETLQPQIQGAFKFVVPNYVIFQQIKSSVAEPAQKVLKLGYPYGTENRLGNSNEESKMFIYWHIDESTNDTTCSQFAEKLIDYSLEHENVGLQVAALNDRQANLVFNYLCQALKNKYTFLDLEQDQDLIWKIVFGREDTDAIGKLLMQLKFRLGMNLKHDPETNPQKLADSARFKKINWKKVMEDITETIIRVNSRDNEIYRNLARSRVLVDVGSPYNTRMQFNAISAGIPQIVNVDSPFIINRKNGWIINEKQSLSQGLDFYLQELGNWNKSLVATTKYMEQLTLKRQADWWERRTKYEK” here?
A: not soluble

Q: For “MGSDKIHHHHHHMKSIKAADLHAAVRDMIMDANRVLGKDVYNAFQTCMQQETTDSGKEVLRQLLENADLAAQSGLALCQDTGVAVFFVEMGEEVRMEGGGLKETLNAAMVEAYNKAFLRKSMCHPLTRKNTGDNTPAVIHVELVPGDTLKVRYMAKGGGSENMSRCTMLTPAQGWQGIKDFVVRRMAEAGPNPCPPTIVGVGIGGTFDLAPSLAKGALFRRVDDVHPDPEIAAMEKELLDEINALGIGPMGLGGKTTCLAVKIAMHPCHIASLPLAVNVQCHSSRHKEVVF”, which “soluble on expression in E. coli” value is on record?
A: not soluble

Q: With “MNFPVSDLTSYQELIEQQGLKSQTNIISLDKIIVDIILSEKTGFSRSQQVWCLIRQRIVDGCASVVDIDYLDMRLMPQLNRSIAENSIYDYLENQLHLSISHAFKEITIDNTSEQDKILIDIGKDHHVVCIRSKVYLNNGNQLQFTESRHKLEKFKFVYYAKRHH” as the sequence, how does the “soluble on expression in E. coli” value read?
A: not soluble
